In article doi:10.1101/2024.02.04.578783:
pKd: −log10 of the molar value.

Experiments:
[1] = molecular target: BCL2 D103E-mCherry (UniProt P10415); test: single-molecule pull-down and co-IP
[2] = molecular target: BCL2-mCherry (wild type) (UniProt P10415); test: single-molecule pull-down and co-IP

Row | Substance | pKd [1] | pKd [2]
1 | BH3 domain of BIM, eGFP-labeled (domain or fragment) | 7.49 | 7.27
2 | BIMEL, TMD-truncated, eGFP-labeled (domain or fragment) | – | 7.56
3 | BIML, TMD-truncated, eGFP-labeled (domain or fragment) | – | 7.20
4 | BIMS, TMD-truncated, eGFP-labeled (domain or fragment) | – | 7.80
